B1: NIP45 expressed from a NIP45 expression plasmid (protein)
chain: MAEPLRGRGPRSRGGRGARRARGARGRCPRARQSPARLIPDTVLVDLVSDSDEEVLEVADPVEVPVARLPAPAKPEQDSDSDSEGAAEGPAGAPRTLVRRRRRRLLDPGEAPVVPVYSGKVQSSLNLIPDNSSLLKLCPSEPEDEADLTNSGSSPSEDDALPSGSPWRKKLRKKCEKEEKKMEEFPDQDISPLPQPSSRNKSRKHTEALQKLREVNKRLQDLRSCLSPKQHQSPALQSTDDEVVLVEGPVLPQSSRLFTLKIRCRADLVRLPVRMSEPLQNVVDHMANHLGVSPNRILLLFGESELSPTATPSTLKLGVADIIDCVVLASSSEATETSQELRLRVQGKEKHQMLEISLSPDSPLKVLMSHYEEAMGLSGHKLSFFFDGTKLSGKELPADLGLESGDLIEVWG

Assays:
Experiment in all cases: cell-based or functional assay
[1] = target: T1, NF-ATp expressed from an NF-ATp expression plasmid (pREP4-NF-ATp)
T1 sequence (Q60591 1-927, species assumed, looked up): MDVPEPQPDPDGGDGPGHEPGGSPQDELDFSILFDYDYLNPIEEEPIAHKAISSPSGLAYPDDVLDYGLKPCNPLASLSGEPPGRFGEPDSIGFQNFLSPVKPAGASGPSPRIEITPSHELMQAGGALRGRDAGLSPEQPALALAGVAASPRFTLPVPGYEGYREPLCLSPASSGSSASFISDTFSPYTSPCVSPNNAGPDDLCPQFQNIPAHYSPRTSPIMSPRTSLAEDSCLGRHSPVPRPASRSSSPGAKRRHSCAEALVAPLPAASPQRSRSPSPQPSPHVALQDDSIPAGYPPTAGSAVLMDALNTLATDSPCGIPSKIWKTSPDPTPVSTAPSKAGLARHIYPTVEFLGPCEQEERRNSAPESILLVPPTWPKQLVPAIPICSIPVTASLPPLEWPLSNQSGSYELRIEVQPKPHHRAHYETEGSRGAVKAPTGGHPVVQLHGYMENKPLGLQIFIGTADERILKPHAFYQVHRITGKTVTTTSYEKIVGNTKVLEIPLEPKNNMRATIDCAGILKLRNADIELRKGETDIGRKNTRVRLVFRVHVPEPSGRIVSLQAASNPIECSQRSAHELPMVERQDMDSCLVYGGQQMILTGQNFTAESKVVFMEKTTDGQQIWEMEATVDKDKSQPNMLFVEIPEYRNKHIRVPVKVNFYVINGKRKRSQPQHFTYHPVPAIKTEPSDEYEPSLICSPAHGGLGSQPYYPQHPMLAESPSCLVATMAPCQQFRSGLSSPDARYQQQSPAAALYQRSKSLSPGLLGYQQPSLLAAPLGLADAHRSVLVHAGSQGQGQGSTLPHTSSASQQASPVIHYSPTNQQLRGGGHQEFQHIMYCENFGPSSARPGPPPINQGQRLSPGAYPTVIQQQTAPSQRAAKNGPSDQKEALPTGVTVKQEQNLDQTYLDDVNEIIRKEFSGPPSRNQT

[2] = target: T2, NF-AT3 expressed from an expression construct
T2 sequence (Q14934 1-902, species assumed, looked up): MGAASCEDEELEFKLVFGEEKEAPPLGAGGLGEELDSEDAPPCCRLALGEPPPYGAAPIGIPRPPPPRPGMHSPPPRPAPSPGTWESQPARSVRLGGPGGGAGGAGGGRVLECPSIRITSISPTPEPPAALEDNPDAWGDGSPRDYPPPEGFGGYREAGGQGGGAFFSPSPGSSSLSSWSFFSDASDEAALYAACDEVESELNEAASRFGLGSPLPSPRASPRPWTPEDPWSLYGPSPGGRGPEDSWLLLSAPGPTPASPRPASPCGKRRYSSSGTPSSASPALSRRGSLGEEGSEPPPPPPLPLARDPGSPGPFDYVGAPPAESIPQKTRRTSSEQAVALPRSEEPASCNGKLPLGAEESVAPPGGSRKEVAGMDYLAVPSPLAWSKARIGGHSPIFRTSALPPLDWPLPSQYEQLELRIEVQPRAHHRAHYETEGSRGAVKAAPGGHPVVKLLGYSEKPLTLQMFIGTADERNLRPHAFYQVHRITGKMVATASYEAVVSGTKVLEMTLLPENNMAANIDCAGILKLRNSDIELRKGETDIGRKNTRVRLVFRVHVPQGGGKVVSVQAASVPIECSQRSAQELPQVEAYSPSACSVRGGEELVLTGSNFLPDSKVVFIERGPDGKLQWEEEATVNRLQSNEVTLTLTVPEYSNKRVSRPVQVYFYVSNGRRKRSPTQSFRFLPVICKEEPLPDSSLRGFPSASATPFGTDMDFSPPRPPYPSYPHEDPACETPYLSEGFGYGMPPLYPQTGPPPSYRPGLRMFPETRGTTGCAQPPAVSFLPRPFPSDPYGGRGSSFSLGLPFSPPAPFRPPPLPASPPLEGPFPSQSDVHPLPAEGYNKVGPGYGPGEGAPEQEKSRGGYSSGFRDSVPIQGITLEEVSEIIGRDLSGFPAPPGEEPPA

[3] = target: T3, NF-AT4 expressed from an expression construct
T3 sequence (Q12968 2-1075, species assumed, looked up): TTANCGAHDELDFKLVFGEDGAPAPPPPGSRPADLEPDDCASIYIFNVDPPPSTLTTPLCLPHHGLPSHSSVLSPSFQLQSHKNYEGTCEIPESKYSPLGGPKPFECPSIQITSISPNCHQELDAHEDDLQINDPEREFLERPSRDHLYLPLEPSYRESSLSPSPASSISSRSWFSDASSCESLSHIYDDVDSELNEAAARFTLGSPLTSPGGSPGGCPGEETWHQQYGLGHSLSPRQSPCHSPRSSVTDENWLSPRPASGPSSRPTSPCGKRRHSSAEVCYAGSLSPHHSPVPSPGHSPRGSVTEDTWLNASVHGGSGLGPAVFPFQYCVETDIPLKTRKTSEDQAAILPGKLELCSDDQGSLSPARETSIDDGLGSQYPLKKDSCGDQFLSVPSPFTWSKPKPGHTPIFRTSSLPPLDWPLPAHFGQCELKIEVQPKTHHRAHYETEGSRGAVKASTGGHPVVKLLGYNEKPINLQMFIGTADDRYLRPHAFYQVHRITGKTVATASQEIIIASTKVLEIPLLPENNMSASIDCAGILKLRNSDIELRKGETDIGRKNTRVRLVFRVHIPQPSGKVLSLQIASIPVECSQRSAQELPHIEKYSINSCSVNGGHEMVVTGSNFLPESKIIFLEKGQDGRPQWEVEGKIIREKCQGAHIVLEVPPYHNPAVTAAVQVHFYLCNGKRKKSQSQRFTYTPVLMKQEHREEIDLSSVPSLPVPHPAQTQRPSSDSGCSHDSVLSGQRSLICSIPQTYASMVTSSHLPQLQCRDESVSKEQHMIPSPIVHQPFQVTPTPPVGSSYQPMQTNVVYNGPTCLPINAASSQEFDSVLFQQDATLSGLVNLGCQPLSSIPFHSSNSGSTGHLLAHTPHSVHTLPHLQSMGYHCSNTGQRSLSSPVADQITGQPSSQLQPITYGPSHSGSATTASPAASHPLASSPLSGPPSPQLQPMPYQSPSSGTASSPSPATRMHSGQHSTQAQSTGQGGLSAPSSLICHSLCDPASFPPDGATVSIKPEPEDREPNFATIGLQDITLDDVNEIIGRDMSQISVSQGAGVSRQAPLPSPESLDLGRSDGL

[4] = target: T4, NF-ATc expressed from an expression construct
T4 sequence (O95644 1-943, species assumed, looked up): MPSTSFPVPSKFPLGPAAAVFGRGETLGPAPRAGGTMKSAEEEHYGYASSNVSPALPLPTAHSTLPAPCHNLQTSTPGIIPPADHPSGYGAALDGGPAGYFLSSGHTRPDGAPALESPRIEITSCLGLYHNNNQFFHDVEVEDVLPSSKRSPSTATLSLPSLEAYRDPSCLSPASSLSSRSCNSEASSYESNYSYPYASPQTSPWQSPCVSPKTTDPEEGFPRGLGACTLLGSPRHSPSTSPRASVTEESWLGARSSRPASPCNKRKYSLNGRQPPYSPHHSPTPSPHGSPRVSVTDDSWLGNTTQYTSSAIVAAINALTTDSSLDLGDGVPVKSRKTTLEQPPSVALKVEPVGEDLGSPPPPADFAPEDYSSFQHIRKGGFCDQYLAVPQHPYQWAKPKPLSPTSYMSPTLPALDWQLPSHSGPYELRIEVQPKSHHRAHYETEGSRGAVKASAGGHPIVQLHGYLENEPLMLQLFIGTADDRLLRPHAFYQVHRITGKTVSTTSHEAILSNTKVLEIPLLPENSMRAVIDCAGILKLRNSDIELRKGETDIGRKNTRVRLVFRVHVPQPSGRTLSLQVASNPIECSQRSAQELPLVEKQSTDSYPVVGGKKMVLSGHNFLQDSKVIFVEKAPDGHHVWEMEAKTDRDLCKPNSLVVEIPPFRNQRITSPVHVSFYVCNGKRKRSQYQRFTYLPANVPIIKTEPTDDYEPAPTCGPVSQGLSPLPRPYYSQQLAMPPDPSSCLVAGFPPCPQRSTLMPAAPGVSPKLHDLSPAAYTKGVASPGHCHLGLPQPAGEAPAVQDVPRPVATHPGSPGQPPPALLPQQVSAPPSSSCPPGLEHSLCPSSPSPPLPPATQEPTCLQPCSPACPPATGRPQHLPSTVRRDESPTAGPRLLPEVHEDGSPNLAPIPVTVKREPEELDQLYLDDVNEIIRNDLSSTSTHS

[5] = target: T1, NF-ATp expressed from an NF-ATp expression plasmid (pREP4-NF-ATp); remark: listed apart in the source

| Molecule | CAT Activity (fold induction), IL-4 CAT reporter in M12 cells, no PMA/iono., Exp. I (fold induction) [1] | CAT Activity (fold induction), IL-4 CAT reporter in M12 cells, no PMA/iono., Exp. II (fold induction) [1] | CAT Activity (fold induction), IL-4 CAT reporter in M12 cells, no PMA/iono., Exp. III (fold induction) [1] | CAT Activity (fold induction), IL-4 CAT reporter in M12 cells, with PMA/iono., Exp. I (fold induction) [1] | CAT Activity (fold induction), IL-4 CAT reporter in M12 cells, with PMA/iono., Exp. II (fold induction) [1] | CAT Activity (fold induction), IL-4 CAT reporter in M12 cells, with PMA/iono., Exp. III (fold induction) [1] | transactivation of the 3X NF-AT-CAT reporter in HepG2 cells [2] [fold] | transactivation of the 3X NF-AT-CAT reporter in HepG2 cells [3] [fold] | transactivation of the 3X NF-AT-CAT reporter in HepG2 cells [4] [fold] | CAT activity, 3X NF-AT-CAT reporter in HepG2 cells, relative to NF-ATp alone [5] [fold] | CAT activity, 3X NF-AT-CAT reporter in HepG2 cells, relative to vector alone [5] [fold] |
| --- | --- | --- | --- | --- | --- | --- | --- | --- | --- | --- | --- |
| c-Maf expressed from the c-Maf expression vector pMEX-Maf (full-length 4.3 kb c-maf cDNA clone) (from UniProt P54843 1-370) | 136 | 54 | 26.3 | 138 | 100 | 54.7 |  |  |  |  |  |
| B1 |  |  |  |  |  |  | 3 | 2 | 4 | 4 to 5 | 25 to 30 |

Reference: patent US20080038235A1
